The values that follow come from publication PMC10551642, “Functional plasticity in chromosome–microtubule coupling on the evolutionary time scale” (Life Science Alliance, 2023).

This data set deals with the molecule itself. The experiment in a line: negative stain electron microscopy; Dam1 complex-MT reaction mix adsorbed on glow-discharged grids, washed with 25 mM HEPES pH 7.4, 500 mM NaCl, 1 mM EDTA, stained with 0.7% uranyl formate; rings of the complex around MTs.

B1: S. cerevisiae Dam1 complex containing Dad2-FL (DASH^WT) (complex)
chain 1: MMASTSNDEEKLISTTDKYFIEQRNIVLQEINETMNSILNGLNGLNISLESSIAVGREFQSVSDLWKTLYDGLESLSDEAPIDEQPTLSQSKTK
chain 2: MDSIDEQIAIKRKELQSLQKITSLTDGLKIQLTELNEQIKEMGMNADSVAQLMNNWDSIINNISQASLGLLQYAEGDYEIGPWKDSKKKESEQSNETGLEAQENDKNDEDNDEDEDLVPLPETMVRIRVDGNE
chain 3: MEHNLSPLQQEVLDKYKQLSLDLKALDETIKELNYSQHRQQHSQQETVSPDEILQEMRDIEVKIGLVGTLLKGSVYSLILQRKQEQESLGSNSK
chain 4: MENPHEQVQANILSRIIGNVKRLNESVAILNQELVTINNRNKNLEIMGAICDNYHSSVQFNLEATNNKKPPL
chain 5: MSEDKAKLGTTRSATEYRLSIGSAPTSRRSSMGESSSLMKFADQEGLTSSVGEYNENTIQQLLLPKIRELSDSIITLDSNFTRLNFIHESLADLNESLGSLLYGIMSNSWCVEFSQAPHDIQDDLIAIKQLKSLEDEKNNLVMELSNMERGIKRKKDEQGENDLAKASQNKQFNQPLFPSSQVRKYRSYDNRDKRKPSKIGNNLQVENEEDYEDDTSSEASFVLNPTNIGMSKSSQGHVTKTTRLNNNTNSKLRRKSILHTIRNSIASGADLPIENDNVVNLGDLHPNNRISLGSGAARVVNGPVTKNRNSMFSGRAERKPTESRHSVAKKTEKKINTRPPFR
chain 6: MSEQSQLDDSTIDKLIPQIFNEMRSNLNNTTNKFPKSTGGGASDNISANSNSIRSFNSITTQSLLKESESLDKITAMIKNVTAALKNNLPVYVNQVHEVCKSTNSILDSWINIHSQAGYIHKLMSDQTYLKLINDRLHNENVNTNDEDGSTLHNVIALKKKEILDLRQKLENRKGEKDAAPAKPPNQGLNPRYGVQSGRRPVPSAGISNNGRVRKTHVPASKRPSGIPRVTNRWTKPTASSSRKMFR
chain 7: MDSASKEETLEKLDQEITVNLQKIDSNLSFCFHKITQDIIPHVATYSEICERIMDSTEWLGTMFQETGLVNLQANAAAPVGNAPVKSLVSNNVGIFPTSAEEASRQSQTDNGPNEADSAVHVNRDVHSMFNNDSIDDFHTANITSTGQILKLPDSSDEDTGSEAVPSREQTDLTGEGHGGADDEQDESTIQRQSRKRKISLLLQQQYGSSSSMVPSPIVPNKMRKQLAHEEHINNDGDNDDENSNNIESSPLKQGHHHPKGQADDNNEGPDEEESTKEVPKPGTIIHFSTNR
chain 8: MNANKQRQYNQLAHELRELQTNLQETTKQLDIMSKQCNENLVGQLGKVHGSWLIGSYIYYMEQMLGKTQ
chain 9: MTDALEQSVLALEGTVSVLKDSVESLKCANEPSTNLASTMLQTKRVFRLVPEYDVERSKLDLIEEVEPLVRTLGDKLRKSMGRMQRELDTLQQTYELNDLRLKKNISMDDDDALNSPDMGQEYEGRDADDVVMMASSTNEELEELKKLKEKKKQLENKLEILKQK
chain 10: MGESLDRCIDDINRAVDSMSTLYFKPPGIFHNAILQGASNKASIRKDITRLIKDCNHDEAYLLFKVNPEKQSVSRRDGKEGVFDYVIKRDTDMKRNRRLGRPGEKPIIHVPKEVYLNKDRLDLNNKRRRTATTSGGGLNGFIFDTDLIGSSVISNSSSGTFKALSAVFKDDPQIQRLLYALENGSVLMEEESNNQRRKTIFVEDFPTDLILKVMAEVTDLWPLTEFKQDYDQLYHNYEQLSSKLRFIKKEVLLQDDRLKTMSQYHPSSSHDVAKIIRKEKDEIRRLEMEIANLQE
notes: Dad1, S. cerevisiae, subunit of the Dam1 (DASH) complex; Dad2, S. cerevisiae, subunit of the Dam1 (DASH) complex; Dad2-FL; Dad3, S. cerevisiae, subunit of the Dam1 (DASH) complex; Dad4, S. cerevisiae, subunit of the Dam1 (DASH) complex; Dam1, S. cerevisiae, subunit of the Dam1 (DASH) complex; Duo1, S. cerevisiae, subunit of the Dam1 (DASH) complex; Ask1, S. cerevisiae, subunit of the Dam1 (DASH) …
B1: the binding result was “binds”.
